Measured values reported in IntAct's records for PubMed 31515488.

B1: Coiled-coil domain-containing protein 106 (Homo sapiens), Q9BWC9 (parent)
chain: MNDRSSRRRTMKDDETFEISIPFDEAPHLDPQIFYSLSPSRRNFEEPPEAASSALALMNSVKTQLHMALERNSWLQKRIEDLEEERDFLRCQLDKFISSARMEAEDHCRMKPGPRRMEGDSRGGAGGEASDPESAASSLSGASEEGSASERRRQKQKGGASRRRFGKPKARERQRVKDADGVLCRYKKILGTFQKLKSMSRAFEHHRVDRNTVALTTPIAELLIVAPEKLAEVGEFDPSKERLLEYSRRCFLALDDETLKKVQALKKSKLLLPITYRFKR
B2: Tuftelin-interacting protein 11 (Homo sapiens), Q9UBB9 (parent)
chain: MSLSHLYRDGEGRIDDDDDERENFEITDWDLQNEFNPNRQRHWQTKEEATYGVWAERDSDDERPSFGGKRARDYSAPVNFISAGLKKGAAEEAELEDSDDEEKPVKQDDFPKDFGPRKLKTGGNFKPSQKGFAGGTKSFMDFGSWERHTKGIGQKLLQKMGYVPGRGLGKNAQGIINPIEAKQRKGKGAVGAYGSERTTQSMQDFPVVDSEEEAEEEFQKELSQWRKDPSGSKKKPKYSYKTVEELKAKGRISKKLTAPQKELSQVKVIDMTGREQKVYYSYSQISHKHNVPDDGLPLQSQQLPQSGKEAKAPGFALPELEHNLQLLIDLTEQEIIQNDRQLQYERDMVVNLFHELEKMTEVLDHEERVISNLSKVLEMVEECERRMQPDCSNPLTLDECARIFETLQDKYYEEYRMSDRVDLAVAIVYPLMKEYFKEWDPLKDCTYGTEIISKWKSLLENDQLLSHGGQDLSADAFHRLIWEVWMPFVRNIVTQWQPRNCDPMVDFLDSWVHIIPVWILDNILDQLIFPKLQKEVENWNPLTDTVPIHSWIHPWLPLMQARLEPLYSPIRSKLSSALQKWHPSDSSAKLILQPWKDVFTPGSWEAFMVKNIVPKLGMCLGELVINPHQQHMDAFYWVIDWEGMISVSSLVGLLEKHFFPKWLQVLCSWLSNSPNYEEITKWYLGWKSMFSDQVLAHPSVKDKFNEALDIMNRAVSSNVGAYMQPGARENIAYLTHTERRKDFQYEAMQERREAENMAQRGIGVAASSVPMNFKDLIETKAEEHNIVFMPVIGKRHEGKQLYTFGRIVIYIDRGVVFVQGEKTWVPTSLQSLIDMAK
partner: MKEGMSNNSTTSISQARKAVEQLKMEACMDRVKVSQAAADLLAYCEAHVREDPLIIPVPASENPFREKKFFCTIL
B3: Protein FAM9B (Homo sapiens), Q8IZU0 (parent)
chain: MAAWGKKHAGKDPVRDECEERNRFTETREEDVTDEHGEREPFAETDEHTGANTKKPEDTAEDLTAKRKRMKMDKTCSKTKNKSKHALRKKQLKRQKRDYIHSLKLLNVLEEYITDEQKEEEEEEGEEEELIRIFQEQQKKWQQYRSVRRERLKEMKLLRDQFVKALEDFEDLCDRVFSDEDSELDN
partner: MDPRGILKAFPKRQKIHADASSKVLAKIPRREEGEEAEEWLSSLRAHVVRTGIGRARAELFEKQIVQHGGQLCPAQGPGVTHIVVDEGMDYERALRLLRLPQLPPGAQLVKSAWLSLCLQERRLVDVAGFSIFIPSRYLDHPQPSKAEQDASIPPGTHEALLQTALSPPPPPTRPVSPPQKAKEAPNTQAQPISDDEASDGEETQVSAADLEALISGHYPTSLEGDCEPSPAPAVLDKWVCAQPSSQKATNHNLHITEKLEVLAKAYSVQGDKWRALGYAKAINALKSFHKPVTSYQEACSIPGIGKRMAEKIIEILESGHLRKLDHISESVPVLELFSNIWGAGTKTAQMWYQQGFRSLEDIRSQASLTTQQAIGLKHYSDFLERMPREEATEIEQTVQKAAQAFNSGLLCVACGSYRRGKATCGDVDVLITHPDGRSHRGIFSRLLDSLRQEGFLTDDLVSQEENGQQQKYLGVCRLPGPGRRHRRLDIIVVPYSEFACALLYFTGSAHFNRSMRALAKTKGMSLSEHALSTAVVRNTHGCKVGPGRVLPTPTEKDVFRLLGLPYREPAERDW
B4: Leucine-rich repeat and calponin homology domain-containing protein 1 (Homo sapiens), Q9Y2L9 (parent)
chain: MATPGSEPQPFVPALSVATLHPLHHPHHHHHHHQHHGGTGAPGGAGGGGGGSGGFNLPLNRGLERALEEAANSGGLNLSARKLKEFPRTAAPGHDLSDTVQADLSKNRLVEVPMELCHFVSLEILNLYHNCIRVIPEAIVNLQMLTYLNLSRNQLSALPACLCGLPLKVLIASNNKLGSLPEEIGQLKQLMELDVSCNEITALPQQIGQLKSLRELNVRRNYLKVLPQELVDLSLVKFDFSCNKVLVIPICFREMKQLQVLLLENNPLQSPPAQICTKGKVHIFKYLSIQACQIKTADSLYLHTMERPHLHQHVEDGKKDSDSGVGSDNGDKRLSATEPSDEDTVSLNVPMSNIMEEEQIIKEDSCHRLSPVKGEFHQEFQPEPSLLGDSTNSGEERDQFTDRADGLHSEFMNYKARAEDCEELLRIEEDVHWQTEGIISSSKDQDMDIAMIEQLREAVDLLQDPNGLSTDITERSVLNLYPMGSAEALELQDSALNGQIQLETSPVCEVQSDLTLQSNGSQYSPNEIRENSPAVSPTTNSTAPFGLKPRSVFLRPQRNLESIDPQFTIRRKMEQMREEKELVEQLRESIEMRLKVSLHEDLGAALMDGVVLCHLVNHIRPRSVASIHVPSPAVPKLSMAKCRRNVENFLEACRKLGVPEADLCSPCDILQLDFRHIRKTVDTLLALGEKAPPPTSALRSRDLIGFCLVHILFIVLVYITYHWNALSA
B5: Transcriptional repressor p66-beta (Homo sapiens), Q8WXI9 (parent)
chain: MDRMTEDALRLNLLKRSLDPADERDDVLAKRLKMEGHEAMERLKMLALLKRKDLANLEVPHELPTKQDGSGVKGYEEKLNGNLRPHGDNRTAGRPGKENINDEPVDMSARRSEPERGRLTPSPDIIVLSDNEASSPRSSSRMEERLKAANLEMFKGKGIEERQQLIKQLRDELRLEEARLVLLKKLRQSQLQKENVVQKTPVVQNAASIVQPSPAHVGQQGLSKLPSRPGAQGVEPQNLRTLQGHSVIRSATNTTLPHMLMSQRVIAPNPAQLQGQRGPPKPGLVRTTTPNMNPAINYQPQSSSSVPCQRTTSSAIYMNLASHIQPGTVNRVSSPLPSPSAMTDAANSQAAAKLALRKQLEKTLLEIPPPKPPAPLLHFLPSAANSEFIYMVGLEEVVQSVIDSQGKSCASLLRVEPFVCAQCRTDFTPHWKQEKNGKILCEQCMTSNQKKALKAEHTNRLKNAFVKALQQEQEIEQRLQQQAALSPTTAPAVSSVSKQETIMRHHTLRQAPQPQSSLQRGIPTSARSMLSNFAQAPQLSVPGGLLGMPGVNIAYLNTGIGGHKGPSLADRQREYLLDMIPPRSISQSISGQK
B6: Phosphoserine phosphatase (Homo sapiens), P78330 (parent)
chain: MVSHSELRKLFYSADAVCFDVDSTVIREEGIDELAKICGVEDAVSEMTRRAMGGAVPFKAALTERLALIQPSREQVQRLIAEQPPHLTPGIRELVSRLQERNVQVFLISGGFRSIVEHVASKLNIPATNVFANRLKFYFNGEYAGFDETQPTAESGGKGKVIKLLKEKFHFKKIIMIGDGATDMEACPPADAFIGFGGNVIRQQVKDNAKWYITDFVELLGELEE
partner: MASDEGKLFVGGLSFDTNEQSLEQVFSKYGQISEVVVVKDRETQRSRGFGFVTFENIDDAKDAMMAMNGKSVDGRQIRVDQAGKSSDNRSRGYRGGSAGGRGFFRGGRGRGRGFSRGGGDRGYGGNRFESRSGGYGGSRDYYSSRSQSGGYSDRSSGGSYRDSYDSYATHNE
B7: E3 ubiquitin-protein ligase Midline-1 (Homo sapiens), O15344 (parent)
chain: METLESELTCPICLELFEDPLLLPCAHSLCFNCAHRILVSHCATNESVESITAFQCPTCRHVITLSQRGLDGLKRNVTLQNIIDRFQKASVSGPNSPSETRRERAFDANTMTSAEKVLCQFCDQDPAQDAVKTCVTCEVSYCDECLKATHPNKKPFTGHRLIEPIPDSHIRGLMCLEHEDEKVNMYCVTDDQLICALCKLVGRHRDHQVAALSERYDKLKQNLESNLTNLIKRNTELETLLAKLIQTCQHVEVNASRQEAKLTEECDLLIEIIQQRRQIIGTKIKEGKVMRLRKLAQQIANCKQCIERSASLISQAEHSLKENDHARFLQTAKNITERVSMATASSQVLIPEINLNDTFDTFALDFSREKKLLECLDYLTAPNPPTIREELCTASYDTITVHWTSDDEFSVVSYELQYTIFTGQANVVSLCNSADSWMIVPNIKQNHYTVHGLQSGTKYIFMVKAINQAGSRSSEPGKLKTNSQPFKLDPKSAHRKLKVSHDNLTVERDESSSKKSHTPERFTSQGSYGVAGNVFIDSGRHYWEVVISGSTWYAIGLAYKSAPKHEWIGKNSASWALCRCNNNWVVRHNSKEIPIEPAPHLRRVGILLDYDNGSIAFYDALNSIHLYTFDVAFAQPVCPTFTVWNKCLTIITGLPIPDHLDCTEQLP
partner: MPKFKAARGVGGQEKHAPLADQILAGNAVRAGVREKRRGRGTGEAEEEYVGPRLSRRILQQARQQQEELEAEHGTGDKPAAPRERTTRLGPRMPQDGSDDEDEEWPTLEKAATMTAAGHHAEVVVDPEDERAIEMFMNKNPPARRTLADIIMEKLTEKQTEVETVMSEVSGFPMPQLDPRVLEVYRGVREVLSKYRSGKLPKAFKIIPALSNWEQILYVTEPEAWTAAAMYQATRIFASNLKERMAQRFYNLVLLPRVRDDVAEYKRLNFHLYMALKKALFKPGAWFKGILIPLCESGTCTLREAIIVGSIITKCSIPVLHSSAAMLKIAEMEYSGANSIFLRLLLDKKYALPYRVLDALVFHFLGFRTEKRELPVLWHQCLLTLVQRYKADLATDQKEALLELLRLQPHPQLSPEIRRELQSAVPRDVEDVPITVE

Variants of: B1
Conditions: with atf4_human ATF4, P18848
Sequence of atf4_human ATF4, P18848 (P18848 whole entry): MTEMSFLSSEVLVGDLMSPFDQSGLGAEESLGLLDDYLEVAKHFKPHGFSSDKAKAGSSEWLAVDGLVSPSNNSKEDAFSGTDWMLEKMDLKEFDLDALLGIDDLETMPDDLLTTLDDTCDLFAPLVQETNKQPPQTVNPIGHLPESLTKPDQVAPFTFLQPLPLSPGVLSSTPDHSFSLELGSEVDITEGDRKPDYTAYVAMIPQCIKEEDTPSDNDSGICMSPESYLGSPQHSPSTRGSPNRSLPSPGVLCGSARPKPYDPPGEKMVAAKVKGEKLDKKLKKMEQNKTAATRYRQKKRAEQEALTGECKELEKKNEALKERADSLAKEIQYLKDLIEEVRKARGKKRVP
In the case of A54T, the “effect of a mutation on the interaction” value is reported as “with no effect”.

Variants of: B1
Conditions: with fam9b_human FAM9B
For A54T, the “effect of a mutation on the interaction” value was “with no effect”.

Variants of: B1
Conditions: with ptbp2_human PTBP2, Q9UKA9
Sequence of ptbp2_human PTBP2, Q9UKA9 (Q9UKA9 whole entry): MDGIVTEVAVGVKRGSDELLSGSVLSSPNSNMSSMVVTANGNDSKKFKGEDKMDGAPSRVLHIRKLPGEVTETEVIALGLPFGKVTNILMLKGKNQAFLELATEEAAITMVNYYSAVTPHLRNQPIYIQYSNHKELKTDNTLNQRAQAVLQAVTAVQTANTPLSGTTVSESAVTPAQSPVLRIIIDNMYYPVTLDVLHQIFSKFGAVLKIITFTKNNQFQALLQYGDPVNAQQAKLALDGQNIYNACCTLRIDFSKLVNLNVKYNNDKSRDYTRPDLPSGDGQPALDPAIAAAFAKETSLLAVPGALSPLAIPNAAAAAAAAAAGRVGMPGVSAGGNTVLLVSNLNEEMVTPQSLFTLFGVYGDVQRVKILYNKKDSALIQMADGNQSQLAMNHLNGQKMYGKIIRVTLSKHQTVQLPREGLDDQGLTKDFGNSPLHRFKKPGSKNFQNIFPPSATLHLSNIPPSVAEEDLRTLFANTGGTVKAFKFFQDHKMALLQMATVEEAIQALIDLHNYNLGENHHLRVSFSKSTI
A54T was tested, and the “effect of a mutation on the interaction” value was “with no effect”.

Variants of: B2
Conditions: with gbg4_human GNG4, P50150
In the case of R8Q, the “effect of a mutation on the interaction” value is reported as “with no effect”. In the case of S688L, the “effect of a mutation on the interaction” value is reported as “with no effect”.

Variants of: B3
Conditions: with dpoll_human POLL
With R23H the “effect of a mutation on the interaction” value was “with no effect”.

Variants of: B4
Conditions: with dock8_human DOCK8, Q8NF50
Sequence of dock8_human DOCK8, Q8NF50 (Q8NF50 whole entry): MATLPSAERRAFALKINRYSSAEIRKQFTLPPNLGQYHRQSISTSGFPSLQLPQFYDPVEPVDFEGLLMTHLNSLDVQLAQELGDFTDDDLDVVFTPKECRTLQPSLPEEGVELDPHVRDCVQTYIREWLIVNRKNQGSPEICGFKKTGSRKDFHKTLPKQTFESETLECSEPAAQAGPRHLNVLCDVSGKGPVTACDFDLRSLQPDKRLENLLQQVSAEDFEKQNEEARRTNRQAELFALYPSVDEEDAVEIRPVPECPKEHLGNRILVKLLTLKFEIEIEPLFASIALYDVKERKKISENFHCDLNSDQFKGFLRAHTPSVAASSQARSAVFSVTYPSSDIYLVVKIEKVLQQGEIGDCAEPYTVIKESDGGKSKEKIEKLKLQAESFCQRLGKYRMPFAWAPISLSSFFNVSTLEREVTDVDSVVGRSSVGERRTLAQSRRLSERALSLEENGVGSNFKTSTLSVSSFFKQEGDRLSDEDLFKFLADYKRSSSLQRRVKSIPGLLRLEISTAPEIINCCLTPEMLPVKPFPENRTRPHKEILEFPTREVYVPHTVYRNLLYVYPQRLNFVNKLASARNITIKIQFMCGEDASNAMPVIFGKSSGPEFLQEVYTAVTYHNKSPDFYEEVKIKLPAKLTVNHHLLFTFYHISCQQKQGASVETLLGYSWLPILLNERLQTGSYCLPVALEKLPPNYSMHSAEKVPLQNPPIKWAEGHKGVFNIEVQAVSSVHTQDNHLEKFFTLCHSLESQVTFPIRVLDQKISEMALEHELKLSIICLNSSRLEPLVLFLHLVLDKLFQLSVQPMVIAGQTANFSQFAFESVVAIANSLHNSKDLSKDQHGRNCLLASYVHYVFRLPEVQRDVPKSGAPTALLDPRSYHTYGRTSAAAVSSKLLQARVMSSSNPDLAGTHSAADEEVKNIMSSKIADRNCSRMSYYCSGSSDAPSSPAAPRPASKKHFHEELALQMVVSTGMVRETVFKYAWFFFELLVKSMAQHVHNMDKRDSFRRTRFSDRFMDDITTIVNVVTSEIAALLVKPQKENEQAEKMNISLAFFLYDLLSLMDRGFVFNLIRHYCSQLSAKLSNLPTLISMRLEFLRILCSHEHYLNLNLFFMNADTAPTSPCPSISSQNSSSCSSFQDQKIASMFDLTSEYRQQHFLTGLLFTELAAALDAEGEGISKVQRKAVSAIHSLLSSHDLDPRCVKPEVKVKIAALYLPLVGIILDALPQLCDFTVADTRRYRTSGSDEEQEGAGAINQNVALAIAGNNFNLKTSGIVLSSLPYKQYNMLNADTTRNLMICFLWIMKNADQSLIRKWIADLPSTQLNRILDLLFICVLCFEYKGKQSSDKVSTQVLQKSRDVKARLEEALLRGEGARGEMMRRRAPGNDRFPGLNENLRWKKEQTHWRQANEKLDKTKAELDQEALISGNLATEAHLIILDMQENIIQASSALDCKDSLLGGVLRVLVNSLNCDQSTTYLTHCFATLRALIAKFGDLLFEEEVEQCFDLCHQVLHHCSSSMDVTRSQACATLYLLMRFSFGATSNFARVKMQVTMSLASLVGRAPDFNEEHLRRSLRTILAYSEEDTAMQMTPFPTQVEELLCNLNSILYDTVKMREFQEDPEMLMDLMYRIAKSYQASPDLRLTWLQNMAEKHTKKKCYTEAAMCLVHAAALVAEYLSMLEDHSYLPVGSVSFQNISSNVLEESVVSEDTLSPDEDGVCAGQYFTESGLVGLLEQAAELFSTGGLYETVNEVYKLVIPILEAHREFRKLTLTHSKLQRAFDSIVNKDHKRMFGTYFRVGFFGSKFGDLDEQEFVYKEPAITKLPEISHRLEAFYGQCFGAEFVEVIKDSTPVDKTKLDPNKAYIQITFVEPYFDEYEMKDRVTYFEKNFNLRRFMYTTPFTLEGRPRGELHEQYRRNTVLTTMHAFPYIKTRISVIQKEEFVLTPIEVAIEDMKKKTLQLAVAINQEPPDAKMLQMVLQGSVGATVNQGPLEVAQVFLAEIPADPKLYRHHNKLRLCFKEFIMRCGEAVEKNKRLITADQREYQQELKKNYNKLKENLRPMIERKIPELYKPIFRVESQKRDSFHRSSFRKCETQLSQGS
For A486S, the “effect of a mutation on the interaction” value was “with no effect”.

Variants of: B5
Conditions: with traf1_human TRAF1, Q13077
Sequence of traf1_human TRAF1, Q13077 (Q13077 whole entry): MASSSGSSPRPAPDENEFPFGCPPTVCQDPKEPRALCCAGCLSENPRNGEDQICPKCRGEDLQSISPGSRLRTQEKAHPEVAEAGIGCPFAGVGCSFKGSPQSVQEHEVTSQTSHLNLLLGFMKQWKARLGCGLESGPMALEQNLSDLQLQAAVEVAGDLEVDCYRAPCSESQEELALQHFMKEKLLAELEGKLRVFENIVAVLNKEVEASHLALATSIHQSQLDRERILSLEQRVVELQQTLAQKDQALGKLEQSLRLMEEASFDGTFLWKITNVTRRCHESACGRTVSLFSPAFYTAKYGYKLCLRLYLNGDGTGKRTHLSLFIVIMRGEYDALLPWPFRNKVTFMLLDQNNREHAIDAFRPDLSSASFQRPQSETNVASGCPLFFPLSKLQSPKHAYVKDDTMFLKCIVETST
A490V was tested, and the “effect of a mutation on the interaction” value was “with no effect”.

Variants of: B6
Conditions: with cirbp_human CIRBP
With T149M the “effect of a mutation on the interaction” value was “with no effect”. T152I was tested, and the “effect of a mutation on the interaction” value was “with no effect”.

Variants of: B7
Conditions: with byst_human BYSL
D84N was tested, and the “effect of a mutation on the interaction” value was “disrupting interaction strength”.
